Laboratory results: the RNAGym collection of RNA variant scans (doi:10.1021/acssynbio.7b00057)

B1: Pistol ribozyme (parent)
chain: GGGUCGUUGUUCCAUAAUCGCGUGGAUAUGGCACGCAAGUUUCUACCGGGCACCGUAAAUGUCCGACUGGAGCCGUUCGGGCGGCUAUAAACAGACCUCAGGCCCGAAGCGUGGCGGCACCUGCCGCCGGUGGUAAAAAAGAUCGGAAGAGCACACGUCU

Variants of: B1
Experiment: aptazyme ON/OFF ratio, guanine; higher = stronger switching; co-transcriptional cleavage with and without guanine

Row | Variant | aptazyme ON/OFF ratio
1 | U7G U8A G9U U10G C12A C13U | 1.08
2 | U7G U8A G9U U10G C12A C13G | 1.03
3 | U7G U8A G9U U10G C12A C13A | 1.11
4 | U7G U8A G9U U10G U11G C12G | 1.29
5 | U7G U8A G9U U10G U11G C12U | 1.15
6 | U7G U8A G9U U10G U11G C12A | 1.24
7 | U7G U8A G9U C12A | 1.06
8 | U7G U8A G9U C12G | 1.1
9 | U7G U8A G9U C12U | 1.18
10 | U7G U8A U10A U11C C13G | 1.06
11 | U7G U8A U10A U11C C13A | 1.03
12 | U7G U8A U10A U11C C13U | 1
13 | U7G U8A U10A U11C C12G | 1.26
14 | U7G U8A U10A U11C C12A | 1.31
15 | U7G U8A U10A U11C C12U | 1.05
16 | U7G U8A G9U U10C U11A C12A | 1.12
17 | U7G U8A G9U U10C U11A C12U | 1.11
18 | U7G U8A G9U U10C U11A C12G | 1.13
19 | U7G U8A G9U U10G U11C C12A C13A | 1.05
20 | U7G U8A G9U U10G U11C C12A C13U | 1.11
21 | U7G U8A G9U U10G U11C C12A C13G | 1.05
22 | U7G U8A G9U C12U C13A | 1.06
23 | U7G U8A G9U C12U C13U | 1.07
24 | U7G U8A G9U C12U C13G | 1.07

Row | Variant | aptazyme ON/OFF ratio
25 | U7G U8A G9U U10G U11C C12A | 1.14
26 | U7G U8A G9U U10G U11C C12G | 1.1
27 | U7G U8A G9U U10G U11C C12U | 1.05
28 | U7G U8A G9U U10A C12G C13A | 1.05
29 | U7G U8A G9U U10A C12G C13U | 1.04
30 | U7G U8A G9U U10A C12G C13G | 1.07
31 | U7G U8A U10A U11A C12U C13G | 1.29
32 | U7G U8A U10A U11A C12U C13A | 1.22
33 | U7G U8A U10A U11A C12U C13U | 1.31
34 | U7G U8A G9U C13G | 1.06
35 | U7G U8A G9U C13A | 1.08
36 | U7G U8A G9U C13U | 1.3
37 | U7G U8A G9U U10C U11A C12U C13A | 1.05
38 | U7G U8A G9U U10C U11A C12U C13G | 1.09
39 | U7G U8A G9U U10C U11A C12U C13U | 1.06
40 | U7G U8A G9U U11C C12U C13A | 1.1
41 | U7G U8A G9U U11C C12U C13G | 1.15
42 | U7G U8A G9U U11C C12U C13U | 1.02
43 | U7G U8A G9U U10A U11G C13G | 1.03
44 | U7G U8A G9U U10A U11G C13A | 1.09
45 | U7G U8A G9U U10A U11G C13U | 1.09
46 | U7G U8A U10A U11G | 2.46
47 | U7G U8A U10A U11C | 0.988
48 | U7G U8A U10A U11A | 2.2

Row | Variant | aptazyme ON/OFF ratio
49 | U7G U8A U10A U11A C13A | 1.2
50 | U7G U8A U10A U11A C13U | 1.21
51 | U7G U8A U10A U11A C13G | 1.15
52 | U7G U8A G9U U10C U11C C12U | 1.06
53 | U7G U8A G9U U10C U11C C12A | 1.09
54 | U7G U8A G9U U10C U11C C12G | 1.08
55 | U7G U8A G9U U11A C12U | 1.17
56 | U7G U8A G9U U11A C12G | 1.14
57 | U7G U8A G9U U11A C12A | 1.14
58 | U7G U8A G9U U10C U11C C12U C13A | 1.03
59 | U7G U8A G9U U10C U11C C12U C13G | 1.06
60 | U7G U8A G9U U10C U11C C12U C13U | 1.06
61 | U7G U8A G9U U11G C12U | 1.23
62 | U7G U8A G9U U11G C12G | 1.12
63 | U7G U8A G9U U11G C12A | 1.07
64 | U7G U8A G9U U10C C13G | 1.06
65 | U7G U8A G9U U10C C13A | 1.11
66 | U7G U8A G9U U10C C13U | 1.38
67 | U7G U8A U10A C12A C13G | 1.3
68 | U7G U8A U10A C12A C13A | 1.33
69 | U7G U8A U10A C12A C13U | 1.08
70 | U7G U8A G9U U10G U11G | 1.11
71 | U7G U8A G9U U10G U11A | 1.05
72 | U7G U8A G9U U10G U11C | 1.04

Row | Variant | aptazyme ON/OFF ratio
73 | U7G U8A G9U U11C C12G C13U | 1.08
74 | U7G U8A G9U U11C C12G C13G | 1.04
75 | U7G U8A G9U U11C C12G C13A | 1.09
76 | U7G U8A G9U U10G U11G C12U C13G | 1.06
77 | U7G U8A G9U U10G U11G C12U C13A | 1.04
78 | U7G U8A G9U U10G U11G C12U C13U | 1.12
79 | U7G U8A G9U U10G U11A C13U | 1.06
80 | U7G U8A G9U U10G U11A C13G | 1.06
81 | U7G U8A G9U U10G U11A C13A | 1.06
82 | U7G U8A G9U U10G U11A C12A C13U | 1.07
83 | U7G U8A G9U U10G U11A C12A C13G | 1.07
84 | U7G U8A G9U U10G U11A C12A C13A | 1.12
85 | U7G U8A G9U U10G U11C C12U C13U | 1.08
86 | U7G U8A G9U U10G U11C C12U C13G | 1.17
87 | U7G U8A G9U U10G U11C C12U C13A | 1.07
88 | U7G U8A G9U U11A C13A | 1.09
89 | U7G U8A G9U U11A C13U | 1.11
90 | U7G U8A G9U U11A C13G | 1.02
91 | U7G U8A U10A U11A C12U | 1.12
92 | U7G U8A U10A U11A C12A | 1.08
93 | U7G U8A U10A U11A C12G | 1.14
94 | U7G U8A U10A U11G C13G | 1.36
95 | U7G U8A U10A U11G C13A | 1.23
96 | U7G U8A U10A U11G C13U | 1.38

Row | Variant | aptazyme ON/OFF ratio
97 | U7G U8A G9U U10A C13A | 1.06
98 | U7G U8A G9U U10A C13U | 1.02
99 | U7G U8A G9U U10A C13G | 1.03
100 | U7G U8A U10A C12U C13A | 1.24
101 | U7G U8A U10A C12U C13G | 1.28
102 | U7G U8A U10A C12U C13U | 1.09
103 | U7G U8A U10A U11G C12G C13A | 1.26
104 | U7G U8A U10A U11G C12G C13U | 1.3
105 | U7G U8A U10A U11G C12G C13G | 1.11
106 | U7G U8A U10C C12G C13G | 1.17
107 | U7G U8A U10C C12G C13A | 1.39
108 | U7G U8A U10C C12G C13U | 1.31
109 | U7G U8A G9U U11A C12A C13G | 1.11
110 | U7G U8A G9U U11A C12A C13A | 1.16
111 | U7G U8A G9U U11A C12A C13U | 1.15
112 | U7G U8A U10A C13G | 1.44
113 | U7G U8A U10A C13U | 1.25
114 | U7G U8A U10A C13A | 1.2
115 | U7G U8A G9U U10G U11G C13G | 1.17
116 | U7G U8A G9U U10G U11G C13U | 1.18
117 | U7G U8A G9U U10G U11G C13A | 1.3
118 | U7G U8A G9U U10C U11G C12U C13U | 1.19
119 | U7G U8A G9U U10C U11G C12U C13A | 1.09
120 | U7G U8A G9U U10C U11G C12U C13G | 1.07

Row | Variant | aptazyme ON/OFF ratio
121 | U7G U8A G9U U10G U11G C12A C13A | 1.07
122 | U7G U8A G9U U10G U11G C12A C13U | 1.25
123 | U7G U8A G9U U10G U11G C12A C13G | 1.09
124 | U7G U8A G9U U11A C12U C13G | 1.07
125 | U7G U8A G9U U11A C12U C13U | 1.07
126 | U7G U8A G9U U11A C12U C13A | 1.02
127 | U7G U8A G9U U10G C13U | 1.21
128 | U7G U8A G9U U10G C13G | 1.19
129 | U7G U8A G9U U10G C13A | 1.35
130 | U7G U8A G9U U10C U11C C12A C13U | 1.09
131 | U7G U8A G9U U10C U11C C12A C13G | 1.23
132 | U7G U8A G9U U10C U11C C12A C13A | 1.09
133 | U7G U8A G9U U10G C12G C13A | 1.05
134 | U7G U8A G9U U10G C12G C13U | 1.12
135 | U7G U8A G9U U10G C12G C13G | 1.07
136 | U7G U8A G9U U10C U11A C12A C13U | 1.09
137 | U7G U8A G9U U10C U11A C12A C13G | 1.06
138 | U7G U8A G9U U10C U11A C12A C13A | 1.14
139 | U7G U8A G9U U10A U11G C12A C13G | 1.06
140 | U7G U8A G9U U10A U11G C12A C13A | 1.09
141 | U7G U8A G9U U10A U11G C12A C13U | 1.09
142 | U7G U8A G9U U10C C12A C13A | 1.12
143 | U7G U8A G9U U10C C12A C13G | 1.12
144 | U7G U8A G9U U10C C12A C13U | 1.15

Row | Variant | aptazyme ON/OFF ratio
145 | U7G U8A G9U U10G U11A C12G C13A | 1.03
146 | U7G U8A G9U U10G U11A C12G C13U | 1.12
147 | U7G U8A G9U U10G U11A C12G C13G | 1.05
148 | U7G U8A G9U U10C U11C C13G | 1.02
149 | U7G U8A G9U U10C U11C C13U | 1.01
150 | U7G U8A G9U U10C U11C C13A | 1.03
151 | U7G U8A G9U U10A C12U C13G | 1.06
152 | U7G U8A G9U U10A C12U C13A | 1.07
153 | U7G U8A G9U U10A C12U C13U | 1.07
154 | U7G U8A U10C C12A C13G | 1.27
155 | U7G U8A U10C C12A C13U | 1.34
156 | U7G U8A U10C C12A C13A | 1.39
157 | U7G U8A G9U U10A U11C C12G C13A | 1.06
158 | U7G U8A G9U U10A U11C C12G C13U | 1.05
159 | U7G U8A G9U U10A U11C C12G C13G | 1.05
160 | U7G U8A G9U U10C U11A C13U | 1.08
161 | U7G U8A G9U U10C U11A C13G | 1.05
162 | U7G U8A G9U U10C U11A C13A | 1.1
163 | U7G U8A G9U U11G C12U C13A | 1.1
164 | U7G U8A G9U U11G C12U C13G | 1.04
165 | U7G U8A G9U U11G C12U C13U | 1.15
166 | U7G U8A G9U U10A U11C C13G | 1.02
167 | U7G U8A G9U U10A U11C C13U | 1.02
